Results published in the supplement of paper PMC5998384.

Experiments:
[1] = test system: HeLa Kyoto; assay: solubility in G1/S (NP-40 vs SDS abundance) (log2 ratio); higher = more soluble; settings: cell cycle stage: G1/S
[2] = test system: HeLa Kyoto; assay: solubility change mitosis vs G1/S (difference of NP-40 vs SDS log2 ratios) (log2 ratio difference); higher = more soluble in mitosis
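Throughout, for solubility change mitosis vs G1/S (difference of NP-40 vs SDS log2 ratios): synchronized HeLa Kyoto cells (double thymidine block for G1/S, nocodazole release for mitosis), protein amounts in NP-40 versus SDS lysates quantified by mass spectrometry, three biological replicates.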
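Throughout, for solubility in G1/S (NP-40 vs SDS abundance): HeLa Kyoto cells arrested at G1/S by double thymidine block, proteins quantified by TMT10plex mass spectrometry in mild NP-40 versus SDS extracts, three biological replicates.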

| Sequence | solubility in G1/S (log2) [1] | solubility change mitosis (log2) [2] |
| --- | --- | --- |
| MPLPGGLWWLLCCRRGFTLLHRDYGDGELSGDGDEDEDEETFELRTPSPAGGGRGPLEVTLTQPVRSGPVSNRLQSWEETWSLIPEKGLPEDDPDIVVKGWLYREPRGGGARPWLPPRRAWFVLTRDSLDQFSSSGKGARRLGSLVLTSLCSVTGPERRRKETGLWSVTVSGRKHSVRLCSPRQAEAERWGVALREVIASKAPLETPTQLLLRDIQESCGDPEAVALIYLRNPILRHTSGALYAPLLPLPYGVSAPGPGYAPLREEAVRLFLALQALEGARRPGPLMQGVLQTCRDLPALRDELFLQLAKQTSGPAGPPGLPATQDPAALRYWQLLTCMSCTFRPGGAVRGHLLGHLERTEQALPDSELAEYARFIRKALGRTRGRELVPSLAEISALSQRQELLCTVHCPGAGACAVAIDSHTTAGEVARELVGRLGLARSRNAFALYEQRGAQERALAGGTLVADVLTRFENLAAEEAGLEDSPDSGWRLCLRLHGPLHPEGLSPDGHELPFLFEQAHALLLRGRPPPPDDTLRALAALRLQSLQRDFSPRVPLPRLDRLLPPPAPPREDPPRPTPRPPPSAALLAGALWSPGLAKRRAERARRGGAGRTAGSIAREGGGGAGTAAAVLGGWKRLRGMGRAEAMAAYLALAAQCPGFGAARYDVLELSTEPGRGAPQKLCLGLGAKAMSLSRPGETEPIHSVSYGHVAACQLMGPHTLALRVGESQLLLQSPQVEEIMQLVNAYLANPSPERPCSSSSPPCQDLPDTSPPSQRPGLDEPQGQSGCLGQLQD [PLEKHH3] | 0.00769 | -0.16 |
| MPLRDKYCQTDHHHHGCCEPVYILEPGDPPLLQQPLQTSKSGIQQIIECFRSGTKQLKHILLKDVDTIFECKLCRSLFRGLPNLITHKKFYCPPSLQMDDNLPDVNDKQSQAINDLLEAIYPSVDKREYIIKLEPIETNQNAVFQYISRTDNPIEVTESSSTPEQTEVQIQETSTEQSKTVPVTDTEVETVEPPPVEIVTDEVAPTSDEQPQESQADLETSDNSDFGHQLICCLCRKEFNSRRGVRRHIRKVHKKKMEELKKYIETRKNPNQSSKGRSKNVLVPLSRSCPVCCKSFATKANVRRHFDEVHRGLRRDSITPDIATKPGQPLFLDSISPKKSFKTRKQKSSSKAEYNLTACKCLLCKRKYSSQIMLKRHMQIVHKITLSGTNSKREKGPNNTANSSEIKVKVEPADSVESSPPSITHSPQNELKGTNHSNEKKNTPAAQKNKVKQDSESPKSTSPSAAGGQQKTRKPKLSAGFDFKQLYCKLCKRQFTSKQNLTKHIELHTDGNNIYVKFYKCPLCTYETRRKRDVIRHITVVHKKSSRYLGKITASLEIRAIKKPIDFVLNKVAKRGPSRDEAKHSDSKHDGTSNSPSKKYEVADVGIEVKVTKNFSLHRCNKCGKAFAKKTYLEHHKKTHKANASNSPEGNKTKGRSTRSKALV [ZNF800] | -3.34 | 1.43 |
| MPLTGVGPGSCRRQIIRALCLLLLLLHAGSAKNIWKRALPARLAEKSRAEEAGAPGGPRQPRADRCPPPPRTLPPGACQAARCQADSECPRHRRCCYNGCAYACLEAVPPPPVLDWLVQPKPRWLGGNGWLLDGPEEVLQAEACSTTEDGAEPLLCPSGYECHILSPGDVAEGIPNRGQCVKQRRQADGRILRHKLYKEYPEGDSKNVAEPGRGQQKHFQ [WFDC1] | 0.101 | 0.522 |
| MPPGKVLQPVLKMKVDELFLYWLSEASTQRMLQDCLRRIKAPGRDQPTPGDGEQPGAWPTAPLAAPRPSGLEPPGTPGPGPALPLGAASSPRNAPHVRGTRRSAGTRVVQTRKEEPLPPATSQSIPTFYFPRGRPQDSVNVDAVISKIESTFARFPHERATMDDMGLVAKACGCPLYWKGPLFYGAGGERTGSVSVHKFVAMWRKILQNCHDDAAKFVHLLMSPGCNYLVQEDFVPFLQDVVNTHPGLSFLKEASEFHSRYITTVIQRIFYAVNRSWSGRITCAELRRSSFLQNVALLEEEADINQLTEFFSYEHFYVIYCKFWELDTDHDLLIDADDLARHNDHALSTKMIDRIFSGAVTRGRKVQKEGKISYADFVWFLISEEDKKTPTSIEYWFRCMDLDGDGALSMFELEYFYEEQCRRLDSMAIEALPFQDCLCQMLDLVKPRTEGKITLQDLKRCKLANVFFDTFFNIEKYLDHEQKEQISLLRDGDSGGPELSDWEKYAAEEYDILVAEETAGEPWEDGFEAELSPVEQKLSALRSPLAQRPFFEAPSPLGAVDLYEYACGDEDLEPL [PPP2R3B] | 0.0833 | -0.203 |
| MQAEGRGTGGSTGDADGPGGPGIPDGPGGNAGGPGEAGATGGRGPRGAGAARASGPRGGAPRGPHGGAASAQDGRCPCGARRPDSRLLELHITMPFSSPMEAELVRRILSRDAAPLPRPGAVLKDFTVSGNLLFMSVRDQDREGAGRMRVVGWGLGSASPEGQKARDLRTPKHKVSEQRPGTPGPPPPEGAQGDGCRGVAFNVMFSAPHI [CTAG2] | 1 | -0.32 |
| MQARYSVSSPNSLGVVPYLGGEQSYYRAAAAAAGGGYTAMPAPMSVYSHPAHAEQYPGGMARAYGPYTPQPQPKDMVKPPYSYIALITMAIQNAPDKKITLNGIYQFIMDRFPFYRDNKQGWQNSIRHNLSLNECFVKVPRDDKKPGKGSYWTLDPDSYNMFENGSFLRRRRRFKKKDAVKDKEEKDRLHLKEPPPPGRQPPPAPPEQADGNAPGPQPPPVRIQDIKTENGTCPSPPQPLSPAAALGSGSAAAVPKIESPDSSSSSLSSGSSPPGSLPSARPLSLDGADSAPPPPAPSAPPPHHSQGFSVDNIMTSLRGSPQSAAAELSSGLLASAAASSRAGIAPPLALGAYSPGQSSLYSSPCSQTSSAGSSGGGGGGAGAAGGAGGAGTYHCNLQAMSLYAAGERGGHLQGAPGGAGGSAVDDPLPDYSLPPVTSSSSSSLSHGGGGGGGGGGQEAGHHPAAHQGRLTSWYLNQAGGDLGHLASAAAAAAAAGYPGQQQNFHSVREMFESQRIGLNNSPVNGNSSCQMAFPSSQSLYRTSGAFVYDCSKF [FOXC1] | 0.0673 | -0.0439 |
| MQIIRHSEQTLKTALISKNPVLVSQYEKLNAGEQRLMNEAFQPASDLFGPITLHSPSDWITSHPEAPQDFEQFFSDPYRKTPSPNKRSIYIQSIGSLGNTRIISEEYIKWLTGYCKAYFYGLRVKLLEPVPVSVTRCSFRVNENTHNLQIHAGDILKFLKKKKPEDAFCVVGITMIDLYPRDSWNFVFGQASLTDGVGIFSFARYGSDFYSMHYKGKVKKLKKTSSSDYSIFDNYYIPEITSVLLLRSCKTLTHEIGHIFGLRHCQWLACLMQGSNHLEEADRRPLNLCPICLHKLQCAVGFSIVERYKALVRWIDDESSDTPGATPEHSHEDNGNLPKPVEAFKEWKEWIIKCLAVLQK [AMZ2] | 0.00677 | -0.0784 |
| MQVSSLNEVKIYSLSCGKSLPEWLSDRKKRALQKKDVDVRRRIELIQDFEMPTVCTTIKVSKDGQYILATGTYKPRVRCYDTYQLSLKFERCLDSEVVTFEILSDDYSKIVFLHNDRYIEFHSQSGFYYKTRIPKFGRDFSYHYPSCDLYFVGASSEVYRLNLEQGRYLNPLQTDAAENNVCDINSVHGLFATGTIEGRVECWDPRTRNRVGLLDCALNSVTADSEINSLPTISALKFNGALTMAVGTTTGQVLLYDLRSDKPLLVKDHQYGLPIKSVHFQDSLDLILSADSRIVKMWNKNSGKIFTSLEPEHDLNDVCLYPNSGMLLTANETPKMGIYYIPVLGPAPRWCSFLDNLTEELEENPESTVYDDYKFVTKKDLENLGLTHLIGSPFLRAYMHGFFMDIRLYHKVKLMVNPFAYEEYRKDKIRQKIEETRAQRVQLKKLPKVNKELALKLIEEEEEKQKSTWKKKVKSLPNILTDDRFKVMFENPDFQVDEESEEFRLLNPLVSKISEKRKKKLRLLEQQELREKEEEEEPEGKPSDAESSESSDDEKAWVEEVRKQRRLLQQEEKVKRQERLKEDQQTVLKPQFYEIKAGEEFRSFKDSATKQKLMNKTLEDRLKIEAKNGTLSVSDTTVGSKQLTFTLKRSEQQKKQQEAEKLHRQERKRLRRSAGHLKSRHKRGRSFH [NOL10] | -1.88 | 0.53 |
| MRFMTLLFLTALAGALVCAYDPEAASAPGSGNPCHEASAAQKENAGEDPGLARQAPKPRKQRSSLLEKGLDGAKKAVGGLGKLGKDAVEDLESVGKGAVHDVKDVLDSVL [DCD] | -1.49 | 1.24 |
| MRLFLWNAVLTLFVTSLIGALIPEPEVKIEVLQKPFICHRKTKGGDLMLVHYEGYLEKDGSLFHSTHKHNNGQPIWFTLGILEALKGWDQGLKGMCVGEKRKLIIPPALGYGKEGKGKIPPESTLIFNIDLLEIRNGPRSHESFQEMDLNDDWKLSKDEVKAYLKKEFEKHGAVVNESHHDALVEDIFDKEDEDKDGFISAREFTYKHDEL [FKBP14] | 0.295 | -0.053 |
| MRLTPRALCSAAQAAWRENFPLCGRDVARWFPGHMAKGLKKMQSSLKLVDCIIEVHDARIPLSGRNPLFQETLGLKPHLLVLNKMDLADLTEQQKIMQHLEGEGLKNVIFTNCVKDENVKQIIPMVTELIGRSHRYHRKENLEYCIMVIGVPNVGKSSLINSLRRQHLRKGKATRVGGEPGITRAVMSKIQVSERPLMFLLDTPGVLAPRIESVETGLKLALCGTVLDHLVGEETMADYLLYTLNKHQRFGYVQHYGLGSACDNVERVLKSVAVKLGKTQKVKVLTGTGNVNIIQPNYPAAARDFLQTFRRGLLGSVMLDLDVLRGHPPAETLP [MTG1] | 0.123 | -0.0796 |
| MRSRSNSGVRLDGYARLVQQTILCHQNPVTGLLPASYDQKDAWVRDNVYSILAVWGLGLAYRKNADRDEDKAKAYELEQSVVKLMRGLLHCMIRQVDKVESFKYSQSTKDSLHAKYNTKTCATVVGDDQWGHLQLDATSVYLLFLAQMTASGLHIIHSLDEVNFIQNLVFYIEAAYKTADFGIWERGDKTNQGISELNASSVGMAKAALEALDELDLFGVKGGPQSVIHVLADEVQHCQSILNSLLPRASTSKEVDASLLSVVSFPAFAVEDSQLVELTKQEIITKLQGRYGCCRFLRDGYKTPKEDPNRLYYEPAELKLFENIECEWPLFWTYFILDGVFSGNAEQVQEYKEALEAVLIKGKNGVPLLPELYSVPPDRVDEEYQNPHTVDRVPMGKLPHMWGQSLYILGSLMAEGFLAPGEIDPLNRRFSTVPKPDVVVQVSILAETEEIKTILKDKGIYVETIAEVYPIRVQPARILSHIYSSLGCNNRMKLSGRPYRHMGVLGTSKLYDIRKTIFTFTPQFIDQQQFYLALDNKMIVEMLRTDLSYLCSRWRMTGQPTITFPISHSMLDEDGTSLNSSILAALRKMQDGYFGGARVQTGKLSEFLTTSCCTHLSFMDPGPEGKLYSEDYDDNYDYLESGNWMNDYDSTSHARCGDEVARYLDHLLAHTAPHPKLAPTSQKGGLDRFQAAVQTTCDLMSLVTKAKELHVQNVHMYLPTKLFQASRPSFNLLDSPHPRQENQVPSVRVEIHLPRDQSGEVDFKALVLQLKETSSLQEQADILYMLYTMKGPDWNTELYNERSATVRELLTELYGKVGEIRHWGLIRYISGILRKKVEALDEACTDLLSHQKHLTVGLPPEPREKTISAPLPYEALTQLIDEASEGDMSISILTQEIMVYLAMYMRTQPGLFAEMFRLRIGLIIQVMATELAHSLRCSAEEATEGLMNLSPSAMKNLLHHILSGKEFGVERSVRPTDSNVSPAISIHEIGAVGATKTERTGIMQLKSEIKQVEFRRLSISAESQSPGTSMTPSSGSFPSAYDQQSSKDSRQGQWQRRRRLDGALNRVPVGFYQKVWKVLQKCHGLSVEGFVLPSSTTREMTPGEIKFSVHVESVLNRVPQPEYRQLLVEAILVLTMLADIEIHSIGSIIAVEKIVHIANDLFLQEQKTLGADDTMLAKDPASGICTLLYDSAPSGRFGTMTYLSKAAATYVQEFLPHSICAMQ [PHKA1] | 0.037 | -0.332 |
